From patent US20160326233A1

Molecular target: HBsAg on purified human serum HBV (virions used in the Tupaia hepatocyte neutralization assay) (Hepatitis B virus)
Assay: cell-based or functional assay

- neutralization of HBV infection of primary Tupaia hepatocytes (newly produced HBsAg): 100 µg/mL
- neutralization of HBV infection of primary Tupaia hepatocytes (newly produced HBsAg) (reciprocal dilution): 10
Substance: mouse monoclonal antibody MA18/7
